Experimental data: the Immune Epitope Database (IEDB)

How the values were obtained:
HLA-A*01:01 [1] = experiment: IEDB peptide-MHC binding, purified MHC/direct/fluorescence; filed as Kd, often an IC50 or EC50 that approximates it; ≥ and ≤ were set here for values at or beyond the usual limits of such assays
HLA-A*32:01 = experiment: IEDB peptide-MHC binding, purified MHC/competitive/radioactivity; filed as Kd, often an IC50 or EC50 that approximates it; ≥ and ≤ were set here for values at or beyond the usual limits of such assays
HLA-A*23:01 = experiment: as above
HLA-A*24:02 = experiment: as above
HLA-A*30:02 = experiment: as above
HLA-A*01:01 [2] = experiment: as above
HLA-A*29:02 = experiment: as above
HLA-A*26:01 = experiment: as above
HLA-B*15:01 = experiment: IEDB peptide-MHC binding, purified MHC/direct/fluorescence; filed as Kd, often an IC50 or EC50 that approximates it; ≥ and ≤ were set here for values at or beyond the usual limits of such assays; conditions: source organism: Homo sapiens
HLA-A*69:01 = experiment: as above
HLA-A*11:01 = experiment: as above; conditions: source organism: Homo sapiens
HLA-B*40:01 = experiment: IEDB peptide-MHC binding, purified MHC/competitive/radioactivity; filed as Kd, often an IC50 or EC50 that approximates it; ≥ and ≤ were set here for values at or beyond the usual limits of such assays
HLA-A*02:01 [3] = experiment: IEDB peptide-MHC binding, purified MHC/direct/fluorescence; filed as Kd, often an IC50 or EC50 that approximates it; ≥ and ≤ were set here for values at or beyond the usual limits of such assays
HLA-B*44:03 = experiment: IEDB peptide-MHC binding, purified MHC/competitive/radioactivity; filed as Kd, often an IC50 or EC50 that approximates it; ≥ and ≤ were set here for values at or beyond the usual limits of such assays; conditions: source organism: Dengue virus 3 Martinique/1243/1999
HLA-A*02:01 [4] = experiment: IEDB peptide-MHC binding, purified MHC/competitive/fluorescence; filed as Kd, often an IC50 or EC50 that approximates it; ≥ and ≤ were set here for values at or beyond the usual limits of such assays
HLA-B*07:02 = experiment: IEDB peptide-MHC binding, purified MHC/direct/fluorescence; filed as Kd, often an IC50 or EC50 that approximates it; ≥ and ≤ were set here for values at or beyond the usual limits of such assays; conditions: source organism: Homo sapiens
HLA-B*58:01 = experiment: as above; conditions: source organism: Homo sapiens
[5] = source organism: Vaccinia virus WR
[6] = source organism: SARS coronavirus Tor2
[7] = source organism: Mammarenavirus machupoense
[8] = source organism: Dengue virus 4 Philippines/H241/1956
[9] = source organism: Dengue virus 2 Jamaica/1409/1983
[10] = source organism: Clostridium botulinum
[11] = source organism: Mammarenavirus whitewaterense
[12] = source organism: Mammarenavirus guanaritoense
[13] = source organism: Lassa virus GA391
[14] = source organism: Entamoeba histolytica HM-1:IMSS

Sequence: AARISSCLK
- Kd (HLA-A*01:01 [1]; source organism: Yersinia pestis): ≥ 20000 nM

Sequence: ALATFTVNI
- Kd (HLA-A*32:01; [5]): 6.07 nM

Sequence: ATEETFKLSY
- Kd (HLA-A*23:01; [6]): ≥ 52500 nM
- Kd (HLA-A*24:02; [6]): ≥ 70300 nM
- Kd (HLA-A*30:02; [6]): 387 nM
- Kd (HLA-A*01:01 [2]; [6]): 54.4 nM
- Kd (HLA-A*29:02; [6]): 224 nM
- Kd (HLA-A*26:01; [6]): 11700 nM

Sequence: CGDPSSFEY
- Kd (HLA-A*23:01; [7]): ≥ 77700 nM
- Kd (HLA-A*24:02; [7]): ≥ 64100 nM
- Kd (HLA-A*30:02; [7]): 421 nM
- Kd (HLA-A*01:01 [2]; [7]): 39.4 nM
- Kd (HLA-A*29:02; [7]): 834 nM
- Kd (HLA-A*26:01; [7]): ≥ 77900 nM

Sequence: CTPPALNCY
- Kd (HLA-A*23:01; [6]): ≥ 32400 nM
- Kd (HLA-A*24:02; [6]): ≥ 77600 nM
- Kd (HLA-A*30:02; [6]): 4790 nM
- Kd (HLA-A*01:01 [2]; [6]): ≥ 69400 nM
- Kd (HLA-A*29:02; [6]): 1300 nM
- Kd (HLA-A*26:01; [6]): ≥ 43600 nM

Sequence: EIEPKLDGYY
- Kd (HLA-A*23:01; [6]): ≥ 70000 nM
- Kd (HLA-A*24:02; [6]): ≥ 70300 nM
- Kd (HLA-A*30:02; [6]): 534 nM
- Kd (HLA-A*01:01 [2]; [6]): 55.1 nM
- Kd (HLA-A*29:02; [6]): 7390 nM
- Kd (HLA-A*26:01; [6]): 163 nM

Sequence: ELSPRWYFYY
- Kd (HLA-A*23:01; [6]): 8810 nM
- Kd (HLA-A*24:02; [6]): 9440 nM
- Kd (HLA-A*30:02; [6]): 60.1 nM
- Kd (HLA-A*01:01 [2]; [6]): 91.4 nM
- Kd (HLA-A*29:02; [6]): 8.01 nM
- Kd (HLA-A*26:01; [6]): 4.04 nM

Sequence: EVDPIGHLY
- Kd (HLA-B*15:01): 3710 nM
- Kd (HLA-A*69:01; source organism: Homo sapiens): 4390 nM
- Kd (HLA-A*11:01): 3360 nM

Sequence: EYADVFHLYL
- Kd (HLA-A*23:01; [6]): 9.55 nM
- Kd (HLA-A*24:02; [6]): 16.7 nM
- Kd (HLA-A*30:02; [6]): 1350 nM
- Kd (HLA-A*01:01 [2]; [6]): 85.5 nM
- Kd (HLA-A*29:02; [6]): 160 nM
- Kd (HLA-A*26:01; [6]): 1970 nM

Sequence: FEEYKRSGIL
- Kd (HLA-B*40:01; [8]): 18.7 nM

Sequence: FEKQLGQVML
- Kd (HLA-B*40:01; [9]): 130 nM

Sequence: FLWSSIIFK
- Kd (HLA-A*02:01 [3]; [10]): 4430 nM
- Kd (HLA-A*69:01; [10]): 7000 nM

Sequence: FLWWNAAPA
- Kd (HLA-A*69:01; source organism: Mycobacterium tuberculosis): ≤ 1 nM

Sequence: FSSLPSYAAY
- Kd (HLA-A*23:01; [6]): ≥ 70000 nM
- Kd (HLA-A*24:02; [6]): ≥ 70300 nM
- Kd (HLA-A*30:02; [6]): 2.77 nM
- Kd (HLA-A*01:01 [2]; [6]): 2.04 nM
- Kd (HLA-A*29:02; [6]): 8.85 nM
- Kd (HLA-A*26:01; [6]): 261 nM

Sequence: GEIGAIALD
- Kd (HLA-B*44:03): 907 nM

Sequence: GTGPEASLPY
- Kd (HLA-A*23:01; [6]): ≥ 70000 nM
- Kd (HLA-A*24:02; [6]): ≥ 70300 nM
- Kd (HLA-A*30:02; [6]): 920 nM
- Kd (HLA-A*01:01 [2]; [6]): 349 nM
- Kd (HLA-A*29:02; [6]): 117 nM
- Kd (HLA-A*26:01; [6]): 412 nM

Sequence: GVSGGAWVDL
- Kd (HLA-A*32:01; [8]): ≥ 69900 nM

Sequence: HDHHFTPQI
- Kd (HLA-A*23:01; [11]): ≥ 45300 nM
- Kd (HLA-A*24:02; [11]): ≥ 77500 nM
- Kd (HLA-A*30:02; [11]): ≥ 76900 nM
- Kd (HLA-A*01:01 [2]; [11]): ≥ 78100 nM
- Kd (HLA-A*29:02; [11]): ≥ 78900 nM
- Kd (HLA-A*26:01; [11]): ≥ 77900 nM

Sequence: HIYFVSLLL
- Kd (HLA-A*32:01; [5]): 15.3 nM

Sequence: HLGNVKYLV
- Kd (HLA-A*02:01 [4]; source organism: Plasmodium falciparum): 6.5 nM

Sequence: HSVGFDYVY
- Kd (HLA-A*23:01; [6]): ≥ 77800 nM
- Kd (HLA-A*24:02; [6]): ≥ 77600 nM
- Kd (HLA-A*30:02; [6]): 11.9 nM
- Kd (HLA-A*01:01 [2]; [6]): 14900 nM
- Kd (HLA-A*29:02; [6]): 157 nM
- Kd (HLA-A*26:01; [6]): 586 nM

Sequence: IGFLVLWIGT
- Kd (HLA-A*32:01; [8]): ≥ 69900 nM

Sequence: IHAKHEWMTT
- Kd (HLA-A*32:01; [9]): 5230 nM

Sequence: ILLFVIVIY
- Kd (HLA-A*32:01; [5]): 952 nM

Sequence: ISEPTIHLV
- Kd (HLA-A*23:01; [12]): 15400 nM
- Kd (HLA-A*24:02; [12]): ≥ 77500 nM
- Kd (HLA-A*30:02; [12]): 4890 nM
- Kd (HLA-A*01:01 [2]; [12]): 626 nM
- Kd (HLA-A*29:02; [12]): ≥ 78900 nM
- Kd (HLA-A*26:01; [12]): ≥ 77900 nM

Sequence: ISLICGHSY
- Kd (HLA-A*01:01 [1]; source organism: Homo sapiens): 11000 nM
- Kd (HLA-B*07:02): 17400 nM
- Kd (HLA-B*15:01): 108 nM
- Kd (HLA-A*69:01; source organism: Homo sapiens): 5280 nM
- Kd (HLA-B*58:01): 22 nM
- Kd (HLA-A*11:01): 8980 nM

Sequence: ISQHQHLAI
- Kd (HLA-A*32:01; [5]): 107 nM

Sequence: ITDVIVQSI
- Kd (HLA-A*32:01; [5]): 256 nM

Sequence: ITFLRVLSI
- Kd (HLA-A*32:01; [8]): 100 nM

Sequence: KDFKCFNLI
- Kd (HLA-A*23:01; [13]): 395 nM
- Kd (HLA-A*24:02; [13]): 792 nM
- Kd (HLA-A*30:02; [13]): ≥ 33600 nM
- Kd (HLA-A*01:01 [2]; [13]): 1180 nM
- Kd (HLA-A*29:02; [13]): ≥ 78900 nM
- Kd (HLA-A*26:01; [13]): ≥ 77900 nM

Sequence: KEENLVNSL
- Kd (HLA-B*40:01; [9]): 2.17 nM

Sequence: KEIGRMLNIL
- Kd (HLA-B*40:01; [9]): 4.83 nM

Sequence: KFRDMITFR
- Kd (HLA-A*01:01 [1]; source organism: Vibrio cholerae): ≥ 20000 nM

Sequence: KLRGVAPL
- Kd (HLA-A*02:01 [4]; source organism: Influenza A virus (A/Swine/Indiana/1726/1988(H1N1))): 2250 nM

Sequence: KLYDSVYLT
- Kd (HLA-A*02:01 [3]; [14]): 7.6 nM
- Kd (HLA-A*69:01; [14]): ≥ 20000 nM

Sequence: KMFSNNVLI
- Kd (HLA-A*32:01; [5]): 1.1 nM

Sequence: KTMAPVHTY
- Kd (HLA-A*32:01; [5]): 4.55 nM

Sequence: KTTWLPVLL
- Kd (HLA-A*32:01; source organism: Dengue virus 1 Brazil/97-11/1997): 148 nM

Sequence: KVHADDIPV
- Kd (HLA-A*02:01 [4]; source organism: Escherichia coli): 15.3 nM

Sequence: KWDLLKYDF
- Kd (HLA-A*23:01; [6]): 12700 nM
- Kd (HLA-A*24:02; [6]): ≥ 28400 nM
- Kd (HLA-A*30:02; [6]): 89.3 nM
- Kd (HLA-A*01:01 [2]; [6]): ≥ 78100 nM
- Kd (HLA-A*29:02; [6]): 4.95 nM
- Kd (HLA-A*26:01; [6]): ≥ 77900 nM

Sequence: LEIDFGECPG
- Kd (HLA-B*40:01; [8]): 10200 nM
